In this series the test system is K562 target cells. Kind of series: Cytotoxicity-blocking with soluble NKp30 (LDH release). Type of series: cell-based, human. The following applies: 10 μg/ml, K562 targets, E:T 5:1, 5-h LDH release. The protocol: FIG. 7C further illustrates that lysis was mediated by the chimeric NKp30 constructs. […] Effector T cells modified with wtNKp30 or NKp30-CD28-3ζ were cocultured with target cells K562 in the presence of 10 μg/ml NKp30-mIgG2a or mouse IgG at a ratio of 5:1; the percentage of specific lysis was determined after a 5-h LDH-release assay. The data are presented as mean+/−SD and are representative of two independent experiments.
The cytotoxic activity of chimeric NKp30-modified human T cells against various tumor cell lines was determined. […] To confirm that chimeric NKp30-mediated killing is dependent on the interactions between NKp30 and its ligands, soluble NKp30 (NKp30-mIgG2a) was incubated with K562 target cells prior to the coculture with T cells.
Cytotoxicity of T cells against target cells was determined by an LDHrelease assay using the CytoTox 96 Non-Radioactive Cytotoxicity Assay kit (Promega, Madison, WI). Specific lysis was determined using the following equation: percentage of specific lysis=[(experimental−effector spontaneous−target spontaneous)/(target maximum−target spontaneous)]×100. In the cytotoxicity-blocking experiments, K562 target cells were preincubated with a soluble NKp30 receptor, NKp30-mIgG2a ([…]), for 30 min before coculture with T cells in an LDH-release assay.

The source of these data is US12559537B2, “Nucleic acid encoding NKP30 receptor targeted therapeutics” (THE TRUSTEES OF DARTMOUTH COLLEGE, priority 2011, dated 2026).

In the case of “NKp30-mIgG2a: soluble fusion protein: extracellular portion of human NKp30 fused to the mouse IgG2a hinge-CH2-CH3 portion”, the “NKp30-28-3ζ-bearing T cell-mediated cytotoxicity in presence of soluble NKp30” value is listed as “significantly reduced”.
